Data set [1] has as its target SARS-CoV-2 nucleocapsid protein (Np);DDX1 (SARS-CoV-2;Homo sapiens, UniProt P0DTC9;Q92499 1-419;1-740, |). The experiment in a line: EMSA; Np titrated with fixed DDX1. Conditions: protein: recombinant;recombinant; tags: His (pET30a(+), Ni-NTA purified);pET30a(+) vector; label: 5'-FAM on the 18 mer.
In data set [2] the target is SARS-CoV-2 nucleocapsid protein (Np);DDX3X (SARS-CoV-2;Homo sapiens, UniProt P0DTC9;O00571 1-419;1-662, |). The experiment in a line: EMSA; Np titrated with fixed DDX3X. Conditions: protein: recombinant;recombinant; tags: His (pET30a(+), Ni-NTA purified);pET30a(+) vector; label: 5'-FAM on the 18 mer.
For data set [3], the target named is T1, SARS-CoV-2 nucleocapsid protein (Np) (SARS-CoV-2, UniProt P0DTC9 1-419). The experiment in a line: EMSA; apparent, cooperative fit. Conditions: protein: recombinant; tags: His (pET30a(+), Ni-NTA purified); chain copies: 2; label: 5'-FAM on the 18 mer. (In general: A gel shift assay detects complexes by their altered migration in electrophoresis.)
Data set [4] has as its target T1, SARS-CoV-2 nucleocapsid protein (Np). The experiment in a line: EMSA. Conditions: protein: recombinant; tags: His (pET30a(+), Ni-NTA purified); chain copies: 2; label: 5'-FAM on the 18 mer.
The target is the same in data set [5]. The experiment in a line: EMSA; time course. Particulars: protein: recombinant; tags: His (pET30a(+), Ni-NTA purified); chain copies: 2; label: 5'-FAM; single strand.

The values below come from article PMC10058294, “Interaction of SARS-CoV-2 Nucleocapsid Protein and Human RNA Helicases DDX1 and DDX3X Modulates Their Activities on Double-Stranded RNA”.

“And” between values parts separate entries of the source, which are not always exact repeats. Equal entries are not always repeated.

B1: 18/38 mer FAM partially dsRNA (dsRNA)
RNA 1: AUGAAGGUUUGAGUUGAGUGGAGAUAGUGGAGGGUAGU
RNA 2: CUCAACUCAAACCUUCAU
With B1, the Kd was 40 nM in data set [1]; 80 nM in data set [2]; 170 nM in data set [3]; 193 nM and 300 nM in data set [4].

B2: ssRNA 18 mer FAM (ssRNA)
RNA: CUCAACUCAAACCUUCAU
For the molecule B2, in data set [5], the binding result is on record as “binds”.
